Assay results as given in patent publication US8615311B2, “Microelectorode array, methods for preparing the same and uses thereof” (Rutgers, The State University of New Jersey, priority 2010, dated 2013).

Legend:
Format in all cases: cell-based, rat
[1] = tested on: Spinal cord explants; experiment: Axonal outgrowth from spinal cord explants with or without Ara-C in the medium; conditions: 1 μm Ara-C added to NB medium, after 13 days in culture, vs standard NB medium
Protocol: Spinal cord explants are prepared using procedures known in the art. Briefly, pregnant Sprague Dawley rats were sacrificed by CO2 inhalation at gestational day 15, and pups were removed by Cesarean section. Spinal cord was removed posteriorly and transferred to a PDMS-lined petri dish in a drop of medium. The cord is then bisected longitudinally and finely minced transversely into sections 200-300 μm thick. Sections were suspended in NB medium plus 1% GlutaMAX supplement and 2% B27 supplement. Explants were then plated onto chemically or topographically patterned glass substrates or MEAS, all of which had been adsorbed overnight with laminin at 40 μg/ml in 10 μL of medium. Explants can be precisely positioned on the growth substrate during this step. In this experiment, explants were positions with the explant body over three contacts in the top row of the MEA, allowing space for axonal outgrowth over the other contacts. After 5 min, allowing for initial adhesion, enough medium was added to just cover the explant, and it was placed in an incubator at 5% CO2 and 37 deg C. Medium was replaced every 2 days.
Explants were fixed and stained on DIV 13 to identify axonal and dendritic outgrowth. […] Five well-attached explants were imaged in each condition, and their outgrowth was quantified using ImageJ software (NIH, Bethesda Md.). […]

[2] = tested on: Myoblasts; experiment: Myoblast fusion and differentiation into myotubes on surfaces adsorbed with different coatings
Protocol: Myoblasts were isolated and cultured as previously described. Briefly, pregnant Sprague Dawley rats were sacrificed by CO2 inhalation at gestational day 21, and pups were removed by Cesarean section. Hind limb muscles were removed, and tissue was finely minced and digested (20 min at 37° C.) in PBS containing 1.5 U/ml collagenase (type D, Roche, Mannheim, Germany) and 2.5 U/ml dispase (type II, Roche, Mannheim, Germany). Single cells were separated from debris, pelleted by centrifugation, and resuspended in growth medium consisting of Ham's F-10 medium plus 20% fetal bovine serum, 1% Penicillin/Streptomycin, (all from Invitrogen, Carlsbad, Calif.) and 2.5 ng/ml human b-FGF (Promega Corporation, Madison, Wis.). Cells were then plated into 75 cm^2 flasks and incubated for 24 hrs. Adherent cells were resuspended and plated onto PDMS substrates in differentiation medium consisting of Neurobasal medium including 2% B-27 supplement, 1% Penicillin/Streptomycin and 1% GlutaMAX (all from Invitrogen, Carlsbad, Calif.) at a surface density of 200,000 cells/cm^2. Prior to seeding, surfaces were plasma treated (O2 plasma for 120 S at 50 Watts) and adsorbed overnight with 40 μg/ml laminin (Sigma Aldrich, St. Louis, Mo.). Medium changes were performed every other day.

[3] = tested on: Hippocampal neurons; experiment: Morphology and Sholl analysis (Bonfire program) of GFP-transfected hippocampal neurons treated with BDNF; conditions: 25 ng/ml BDNF
Protocol: Hippocampal neurons were isolated from E18 rat embryos and cultured. Briefly, embryos were removed by Cesarian section at 18 days gestation and decapitated. The hippocampi were manually dissected under a microscope, and cells were triturated with a fire polished glass pipette tip, counted on a hemocytometer, and plated at a density of ˜1800 cells per mm^2 on 35 mm petri plates (Corning) coated with 1 mg/ml poly-D-lysine (Sigma-Aldrich). Cultures were maintained in Neurobasal medium containing penicillin, streptomycin, glutamine, and B27 supplement (NB; all purchased from Invitrogen).
At 5 days in vitro (DIV5), cells were transfected with cDNA encoding GFP using Effectene (Qiagen). The low efficiency of this transfection technique in this cell system allows the easy identification of the processes associated with single neurons. In the BDNF treatment groups, treatment occurred from DIV7-10, during which regular NB was replaced with NB containing 25 ng/ml BDNF. […] Cultures were fixed in 4% paraformaldehyde on DIV10 and immunostained with rat anti-GFP (a gift from Dr. Shu-Chan Hsu, Rutgers University) and MAP-2 (Sigma-Aldrich). Neurons were imaged in the GFP channel at 200× using an Olympus Optical IX50 microscope with a Cooke Sensicam CCD cooled camera, fluorescence imaging system, and ImagePro software (MediaCybernetics). Images were acquired in 8-bit TIFF format, measuring 512×640 pixels.
An embodiment Bonfire program is a series of custom scripts written in, for example, MATLAB (MathWorks), although it will be appreciated that any suitable programming language may be employed. Neuronal morphology was digitized in three stages based on the initial images. In the first stage, the semi-automated tools available through the NeuronJ plugin to ImageJ (NIH, Bethesda Md.) were used to define all neurite positions (FIG. 6(A-B)). The data for each neurite are exported using NeuronJ in the form of a series of nodes with defined positions in the X-Y plane, where nodes belonging to an individual neurite segment are linked by association. These tools allow the user to guide the tracing of each neuritic segment with course resolution by hand but reduce tracing time by using a curve-fitting algorithm to fine-tune the exact location of the nodes defining the neurite position.
In the second stage, portions of the embodiment Bonfire program were used to convert the strings of nodes provided by NeuronJ into SWC format for further manipulation. NeuronStudio is then used to define the pattern of connectivity between neurite segments (FIG. 6(C)). The transformation of the data into SWC format allows for the linkage of the simple strings of nodes defined previously into more complex branching structures. After linking is complete, another component of the embodiment Bonfire program checks the resulting structure for errors and non-linkages (FIG. 6(D)), based on the assumption that each neuritic segment may only give rise to two or less daughter segments. […] These two steps fully determine the structure of each cell's neuritic arbor in 2-dimensional space and encode it in a digital format.
Using these digitized neuritic arbors, a second component of the embodiment Bonfire program was then used to perform process identification and extract the following metrics: number of primary neurites, number of secondary neurites, number of branch points per cell, number of terminal neurite tips per cell, and Sholl analysis performed with a 3.0 μm ring interval (FIG. 6(E)). Sholl analysis is performed conceptually by drawing concentric circles around a cell body at incrementally increasing radii and counting the number of times each circle crosses a neuritic segment. The number of intersections is graphed as a function of radial distance from the cell body to give a quantitative representation of how neurite density varies spatially. […]

[4] = DIV7-10, vs untreated control, data not shown

Molecule: Nc1ccn([C@@H]2O[C@H](CO)[C@@H](O)[C@@H]2O)c(=O)n1 [Ara-C]
- axonal outgrowth length (maximum axonal extension from explant body) [1]: did not appreciably reduce

Molecule: laminin
- myoblast fusion and maturation into striated myotubes ([2]; laminin adsorbed surfaces): robust
- myotube differentiation ([2]; surface adsorbed with the substance, data not shown): promoted myotube differentiation

B1: BDNF: a well-studied extracellular factor that regulates neurite morphology (protein, UniProt P23560 19-247, looked up)
Neurotrophic factor BDNF …: APMKEANIRGQGGLAYPGVRTHGTLESVNGPKAGSRGLTSLADTFEHVIEELLDEDQKVRPNEENNKDADLYTSRVMLSSQVPLEPPLLFLLEEYKNYLDAANMSMRVRRHSDPARRGELSVCDSISEWVTAADKKTAVDMSGGTVTVLEKVPVSKGQLKQYFYETKCNPMGYTKEGCRGIDKRHWNSQCRTTQSYVRALTMDSKKRIGWRFIRIDTSCVCTLTIKRGR
- average number of branch points per cell ([3]; DIV7-10, vs untreated control): no change between conditions
- distal neurites (total Sholl curve) ([3]; DIV7-10, vs untreated control): no effect on distal neurites
- number of primary neurites (primary extensions) per cell ([3]; DIV7-10, vs untreated control): statistically significant increase
- number of secondary neurites per cell ([3]; DIV7-10, vs untreated control): does not reach statistical significance
- number of terminal branches per cell ([3]; DIV7-10, vs untreated control): no change between conditions
- average process length [3, 4]: no significant change
- total arbor length [3, 4]: no significant change
- proximal neurites within the first 35 μm of the soma (total Sholl curve) ([3]; DIV7-10, vs untreated control, global exposure in vitro): increases proximal neurites
- number of Sholl intersections with terminal neurites ([3]; DIV7-10, RIT labeling scheme Sholl analysis): increase
- number of Sholl intersections with primary neurites ([3]; DIV7-10, segment identity-specific Sholl analysis): increase
